According to patent publication US20150196656A1 (IGF ONCOLOGY, published 2015):

B1: LR3IGF-MTX (other)
chain: MFPAMPLSSLFVNGPRTLCGALVDALQFVCGDRGFYFNKPTGYGSSSRRAPQTGIVDECCFRSCDLRRLEMYCAPLKPAKSEA
modifications: methotrexate attached to amino groups; MTX:protein ratio of 2.8
B2: 403IGF (ligand)
chain: MTSGHHHHHHSAGVNGFVNQHLCGSHLVEALYLVCGDRGFYFNKPTGYGSSSRRAPQTGIVDECCFRSCDLRRLEMYCAPLKPAKSA
notes: also called His6-IGF
B3: 764IGF (ligand)
chain: MVKGKHHHHHHNGKGKSKFVNQHLCGSHLVEALYLVCGDRGFYFNKPTGYGSSSRRAPQTGIVDECCFRSCDLRRLEMYCAPLKPAKSA
notes: also called His6-K5-IGF132
B4: 785IGF (ligand)
chain: MVKQIESKTAFQEALDAAGDKLVVVDFSATWCGHCKMIKPFFHSLSEKYSNVIFLEVDVDDSQDVASESEVKSMPTFQFFKKGQKVGEFSGANKEKLEATINELVGSKSGHHHHHHSAKGFVNQHLCGSHLVEALYLVCGDRGFYFNKPTGYGSSSRRAPQTGIVDECCFRSCDLRRLEMYCAPLKPAKSA
notes: also called mutTrx-IGF132

How the values were obtained:
dihydrofolate reductase = assay: cell-based or functional assay; set-up: unit not given beside the values
type 1 IGF receptor = target: T1, type 1 IGF receptor (human, UniProt P08069 31-1367); assay: competition binding to IGF receptors against radioactive wild type IGF; approximate KD
T1 construct: whole, on cells; also called IGF-1 receptor; IGF-1R
T1 sequence (P08069 31-1367): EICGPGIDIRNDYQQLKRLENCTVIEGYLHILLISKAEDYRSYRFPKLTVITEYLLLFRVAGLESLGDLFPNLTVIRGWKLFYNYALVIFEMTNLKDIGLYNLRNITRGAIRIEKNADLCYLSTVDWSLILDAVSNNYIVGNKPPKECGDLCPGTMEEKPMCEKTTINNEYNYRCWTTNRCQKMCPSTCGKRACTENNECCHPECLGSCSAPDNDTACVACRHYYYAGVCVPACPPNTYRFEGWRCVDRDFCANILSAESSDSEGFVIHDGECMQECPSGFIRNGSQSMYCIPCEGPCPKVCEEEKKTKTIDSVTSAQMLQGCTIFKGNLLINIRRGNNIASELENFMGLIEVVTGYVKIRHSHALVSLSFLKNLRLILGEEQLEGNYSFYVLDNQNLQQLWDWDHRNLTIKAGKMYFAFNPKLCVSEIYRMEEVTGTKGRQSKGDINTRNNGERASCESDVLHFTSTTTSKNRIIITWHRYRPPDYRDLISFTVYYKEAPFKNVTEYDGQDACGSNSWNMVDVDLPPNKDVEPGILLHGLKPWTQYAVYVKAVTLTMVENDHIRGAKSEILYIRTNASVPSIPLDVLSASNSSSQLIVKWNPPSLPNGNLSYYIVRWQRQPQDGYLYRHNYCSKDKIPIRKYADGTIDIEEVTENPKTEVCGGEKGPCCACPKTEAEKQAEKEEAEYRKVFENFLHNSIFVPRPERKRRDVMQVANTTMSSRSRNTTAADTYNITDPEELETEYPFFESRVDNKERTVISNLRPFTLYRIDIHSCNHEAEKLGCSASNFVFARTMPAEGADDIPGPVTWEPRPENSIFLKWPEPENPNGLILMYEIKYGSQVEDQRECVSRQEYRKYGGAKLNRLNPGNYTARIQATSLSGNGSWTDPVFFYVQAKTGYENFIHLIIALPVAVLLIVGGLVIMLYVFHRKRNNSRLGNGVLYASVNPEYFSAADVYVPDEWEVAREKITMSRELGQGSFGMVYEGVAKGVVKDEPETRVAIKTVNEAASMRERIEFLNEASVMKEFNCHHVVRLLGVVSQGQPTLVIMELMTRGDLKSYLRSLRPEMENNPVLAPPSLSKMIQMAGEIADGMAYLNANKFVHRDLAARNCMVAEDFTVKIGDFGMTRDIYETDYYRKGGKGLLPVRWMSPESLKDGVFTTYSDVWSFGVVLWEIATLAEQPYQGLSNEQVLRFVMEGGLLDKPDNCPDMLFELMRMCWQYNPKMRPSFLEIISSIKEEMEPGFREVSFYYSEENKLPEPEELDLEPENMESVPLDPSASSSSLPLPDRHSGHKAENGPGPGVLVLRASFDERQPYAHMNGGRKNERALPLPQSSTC
Description: 200 ul of each of these was mixed rapidly with 1.8 ml of refold buffer. Refold buffer was 1.4 M urea, 100 mM glycine, 0.5 M NaCl, 19% ethanol, 0.5 mM GSSG, 4 mM GSH, pH 9.5.

Binder	IC50 (inhibition of dihydrofolate reductase) (dihydrofolate reductase)	Kd (type 1 IGF receptor)
B1	99	
B2		~2 nM
B3		~100 nM
B4		~40 nM
